# Results as given in the supplement of paper PMC10567573.
# B1: C9orf9 (parent)
# chain: LTKASLKPRGCSKPPWRPPGGKL
# Variants of: B1
# Assay: protein stability index of a GFP-peptide fusion (GPS, HEK-293T) (PSI 1-6); higher = more stable
# Details: c terminus: native
# 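Also: lentivirally expressed fusions sorted by FACS into six bins by GFP to DsRed ratio, PSI derived from sequencing read proportions per bin multiplied by bin number.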
row,Variant,protein stability index
1,LTKASLKPRGCSKPPWRPPYGKL [G20Y],2.56
2,LTKASLKPRGCSKPPWRPPVGKL [G20V],3.83
3,LTKASLKPRGCSKPPWRPPKGKL [G20K],3.36
4,LTKASLKPRGCSKPPWRPPNGKL [G20N],2.27
5,LTKASLKPRGCSKPPWRPPDGKL [G20D],4.64
6,LTKASLKPRGCSKPPWRPPHGKL [G20H],3.77
7,LTKASLKPRGCSKPPWRPPIGKL [G20I],2.42
8,LTKASLKPRGCSKPPWRPPCGKL [G20C],2.91
9,LTKASLKPRGCSKPPWRPPRGKL [G20R],2.18
10,LTKASLKPRGCSKPPWRPPMGKL [G20M],2.13
11,LTKASLKPRGCSKPPWRPPSGKL [G20S],2.76
12,LTKASLKPRGCSKPPWRPPFGKL [G20F],3.03
13,LTKASLKPRGCSKPPGRPPGGKL [W16G],2.29
14,LTKASLKPRGCSKPPERPPGGKL [W16E],2.19
15,LTKASLKPRGCSKPPIRPPGGKL [W16I],1.87
16,LTKASLKPRGCSKPPFRPPGGKL [W16F],2.03
17,LTKASLKPRGCSKPPYRPPGGKL [W16Y],2.25
18,LTKASLKPRGCSKPPVRPPGGKL [W16V],3.43
19,LTKASLKPRGCTKPPWRPPGGKL [S12T],3.8
20,LTKASLKPRGCRKPPWRPPGGKL [S12R],1.34
21,LTKASLKPRGCPKPPWRPPGGKL [S12P],1.48
22,LTKASLKPRGCFKPPWRPPGGKL [S12F],1.3
23,LTKASLKPRGCIKPPWRPPGGKL [S12I],2.3
24,LTKASLKPRGCLKPPWRPPGGKL [S12L],1.66
25,LTKASLKPRGCVKPPWRPPGGKL [S12V],2.52
26,LTKASLKPRGCHKPPWRPPGGKL [S12H],1.53

row,Variant,protein stability index
1,LTKASLKPRGCAKPPWRPPGGKL [S12A],2.42
2,LTKASLKPRGCGKPPWRPPGGKL [S12G],1.99
3,LTKASLKPRGCEKPPWRPPGGKL [S12E],2.02
4,LTKASLKPRGCNKPPWRPPGGKL [S12N],2.05
5,LTKASLKPRGCMKPPWRPPGGKL [S12M],5.53
6,LTKASLKPRGCCKPPWRPPGGKL [S12C],1.49
7,LTKASLKPRGCWKPPWRPPGGKL [S12W],3.5
8,LTKASLKPRTCSKPPWRPPGGKL [G10T],2.5
9,LTKASLKPRSCSKPPWRPPGGKL [G10S],2.7
10,LTKASLKPRLCSKPPWRPPGGKL [G10L],2.96
11,LTKASLKPRMCSKPPWRPPGGKL [G10M],2.19
12,LTKASLKPRNCSKPPWRPPGGKL [G10N],2.06
13,LTKASLKPRWCSKPPWRPPGGKL [G10W],2.02
14,LTKASLKPRQCSKPPWRPPGGKL [G10Q],1.88
15,LTKASLKPRICSKPPWRPPGGKL [G10I],2.47
16,LTKASLKPRRCSKPPWRPPGGKL [G10R],3.37
17,LTKASLKPRYCSKPPWRPPGGKL [G10Y],2.25
18,LTKASLKPRPCSKPPWRPPGGKL [G10P],2.24
19,LTKASLKPRHCSKPPWRPPGGKL [G10H],2.29
20,LTKASLKPRKCSKPPWRPPGGKL [G10K],2.43
21,LTKASLKPRVCSKPPWRPPGGKL [G10V],2.19
22,LTKASLKPRGCSKSPWRPPGGKL [P14S],1.38
23,LTKASLKPRGCSKVPWRPPGGKL [P14V],2.36
24,LTKASLKPRGCSKLPWRPPGGKL [P14L],2.24
25,LTKASLKPRGCSKWPWRPPGGKL [P14W],1.94
26,LTKASLKPRGCSKAPWRPPGGKL [P14A],1.54

row,Variant,protein stability index
1,LTKASLKPRGCSKPPWRIPGGKL [P18I],2.18
2,LTKASLKPRGCSKPPWRMPGGKL [P18M],3.68
3,LTKASLKPRGCSKPPWRYPGGKL [P18Y],2.86
4,LTKASLKPRGCSKPPWRKPGGKL [P18K],2.85
5,LTKASLKPRGCSKPPWRQPGGKL [P18Q],2.26
6,LTKASLKPRGCSKPPWRNPGGKL [P18N],2.93
7,LTKASLKPRGCSKPPWRLPGGKL [P18L],1.32
8,LTKASLKPRGCSKPPWRWPGGKL [P18W],2.9
9,LTKASLKPRGCSKPPWRRPGGKL [P18R],2.46
10,LTKASLKPRGCSKPPWRHPGGKL [P18H],3.78
11,LTKASLKPRGCSKPPWRPPGPKL [G21P],2.03
12,LTKASLKPRGCSKPPWRPPGRKL [G21R],1.75
13,LTKASLKPRGCSKPPWRPPGAKL [G21A],1.86
14,LTKASLKPRGCSKPPWRPPGVKL [G21V],3.39
15,LTKASLKPRGCSKPPWRPPGWKL [G21W],2.02
16,LTKASLKPRGCSKPPWRPPGKKL [G21K],4.05
17,LTKASLKPRGCSKPPWRPPGYKL [G21Y],2.35
18,LTKASLKPRGNSKPPWRPPGGKL [C11N],1.58
19,LTKASLKPRGLSKPPWRPPGGKL [C11L],2.39
20,LTKASLKPRGPSKPPWRPPGGKL [C11P],1.65
21,LTKASLKPRGWSKPPWRPPGGKL [C11W],2.1
22,LTKASLKPRGGSKPPWRPPGGKL [C11G],2.13
23,LTKASLKPRGISKPPWRPPGGKL [C11I],2.1
24,LTKASLKPRGHSKPPWRPPGGKL [C11H],3.08
25,LTKASLKPRGVSKPPWRPPGGKL [C11V],2.1
26,LTKASLKPRGYSKPPWRPPGGKL [C11Y],1.27

row,Variant,protein stability index
1,LTKASLKPRGQSKPPWRPPGGKL [C11Q],1.54
2,LTKASLKPRGDSKPPWRPPGGKL [C11D],1.76
3,LTKASLKPRGSSKPPWRPPGGKL [C11S],2
4,LTKASLKPRGMSKPPWRPPGGKL [C11M],1.71
5,LTKASLKPRGCSKPPWRPLGGKL [P19L],3.21
6,LTKASLKPRGCSKPPWRPHGGKL [P19H],2.23
7,LTKASLKPRGCSKPPWRPIGGKL [P19I],1.24
8,LTKASLKPRGCSKPPWRPFGGKL [P19F],1.69
9,LTKASLKPRGCSKPPWRPVGGKL [P19V],1.78
10,LTKASLKPRGCSKPPWRPYGGKL [P19Y],1.22
11,LTKASLKPRGCSKPPWRPSGGKL [P19S],3.87
12,LTKASLKPRGCSKPPWRPRGGKL [P19R],2.6
13,LTKASLKPRGCSKPPWRPTGGKL [P19T],3.72
14,LTKASLKPRGCSKPPWRPMGGKL [P19M],3.15
15,LTKASLKPRGCSKPPWRPGGGKL [P19G],3.44
16,LTKASLKPRGCSKPPWRPEGGKL [P19E],4.05
17,LTKASLKPRGCSKPPWRPDGGKL [P19D],4.43
18,LTKASLKPRGCSKPPWRPCGGKL [P19C],2.91
19,LTKASLKPRGCSKPPWRPNGGKL [P19N],4.1
20,LTKASLKPRGCSKPPWRPPGGCL [K22C],3.7
21,LTKASLKPRGCSKPPWRPPGGFL [K22F],2.03
22,LTKASLKPRGCSKPPWRPPGGQL [K22Q],3.53
23,LTKASLKPRGCSKPPWRPPGGGL [K22G],2.1
24,LTKASLKPRGCSKPPWRPPGGML [K22M],2.73
25,LTKASLKPRGCSKPPWRPPGGNL [K22N],3.08
26,LTKASLKPRGCSKPPWRPPGGYL [K22Y],3.71

row,Variant,protein stability index
1,LTKASLKPRGCSKPPWRPPGGSL [K22S],2.67
2,LTKASLKPRGCSKPPWRPPGGVL [K22V],4.26
3,LTKASLKPRGCSKPPWVPPGGKL [R17V],3.35
4,LTKASLKPRGCSKPPWFPPGGKL [R17F],3.37
5,LTKASLKPRGCSKPPWMPPGGKL [R17M],3.49
6,LTKASLKPRGCSKPPWWPPGGKL [R17W],3.47
7,LTKASLKPRGCSKPPWKPPGGKL [R17K],3.26
8,LTKASLKPRGCSKPPWDPPGGKL [R17D],3.87
9,LTKASLKPRGCSKPPWSPPGGKL [R17S],4.71
10,LTKASLKPRGCSKPPWAPPGGKL [R17A],3.53
11,LTKASLKPRGCSKPPWPPPGGKL [R17P],2.71
12,LTKASLKPRGCSKPPWNPPGGKL [R17N],4.2
13,LTKASLKPRGCSKPPWQPPGGKL [R17Q],4.16
14,LTKASLKPRGCSKPPWLPPGGKL [R17L],3.69
15,LTKASLKPRGCSKPPWRPPGGKC [L23C],1.68
16,LTKASLKPRGCSKPPWRPPGGKN [L23N],1.92
17,LTKASLKPRGCSKPPWRPPGGKF [L23F],1.24
18,LTKASLKPRGCSKPPWRPPGGKH [L23H],2.48
19,LTKASLKPRGCSKPPWRPPGGKY [L23Y],2.13
20,LTKASLKPRGCSKPPWRPPGGKM [L23M],2.1
21,LTKASLKPRGCSKPPWRPPGGKP [L23P],3.08
22,LTKASLKPRGCSKPPWRPPGGKW [L23W],1.03
23,LTKASLKPRGCSKPPWRPPGGKR [L23R],3.08
24,LTKASLKPRGCSKPPWRPPGGKQ [L23Q],2.91
25,LTKASLKPRGCSKPQWRPPGGKL [P15Q],2.77
26,LTKASLKPRGCSKPVWRPPGGKL [P15V],2.02

row,Variant,protein stability index
1,LTKASLKPRGCSKPHWRPPGGKL [P15H],2.18
2,LTKASLKPRGCSKPDWRPPGGKL [P15D],3.75
3,LTKASLKPRGCSKPIWRPPGGKL [P15I],2.36
4,LTKASLKPRGCSKPWWRPPGGKL [P15W],1.16
5,LTKASLKPRGCSKPRWRPPGGKL [P15R],2.34
6,LTKASLKPRGCSKPMWRPPGGKL [P15M],1.78
7,LTKASLKPRGCSKPYWRPPGGKL [P15Y],2.73
8,LTKASLKPRGCSKPLWRPPGGKL [P15L],3.21
9,LTKASLKPRGCSKPTWRPPGGKL [P15T],3.08
10,LTKASLKPRGCSKPEWRPPGGKL [P15E],3.93
11,LTKASLKPRGCSKPGWRPPGGKL [P15G],2.02
12,LTKASLKPRGCSKPNWRPPGGKL [P15N],1.77
13,LTKASLKPRGCSQPPWRPPGGKL [K13Q],2.3
14,LTKASLKPRGCSRPPWRPPGGKL [K13R],1.49
15,LTKASLKPRGCSMPPWRPPGGKL [K13M],2.87
16,LTKASLKPRGCSSPPWRPPGGKL [K13S],2.62
17,LTKASLKPRGCSIPPWRPPGGKL [K13I],2.1
18,LTKASLKPRGCSDPPWRPPGGKL [K13D],3.65
19,LTKASLKPRGCSCPPWRPPGGKL [K13C],2.9
20,LTKASLKPRGCSGPPWRPPGGKL [K13G],2.78
21,LTKASLKPRGCSEPPWRPPGGKL [K13E],3.46
